Data from US20190142902A1 (RELAXERA PHARMAZEUTISCHE GESELLSCHAFT MBH, published 2019).

Biological target: T1, human relaxin receptor RXFP1 (relaxin family peptide receptor 1) (human, UniProt Q9HBX9 1-757)
T1 sequence (looked up): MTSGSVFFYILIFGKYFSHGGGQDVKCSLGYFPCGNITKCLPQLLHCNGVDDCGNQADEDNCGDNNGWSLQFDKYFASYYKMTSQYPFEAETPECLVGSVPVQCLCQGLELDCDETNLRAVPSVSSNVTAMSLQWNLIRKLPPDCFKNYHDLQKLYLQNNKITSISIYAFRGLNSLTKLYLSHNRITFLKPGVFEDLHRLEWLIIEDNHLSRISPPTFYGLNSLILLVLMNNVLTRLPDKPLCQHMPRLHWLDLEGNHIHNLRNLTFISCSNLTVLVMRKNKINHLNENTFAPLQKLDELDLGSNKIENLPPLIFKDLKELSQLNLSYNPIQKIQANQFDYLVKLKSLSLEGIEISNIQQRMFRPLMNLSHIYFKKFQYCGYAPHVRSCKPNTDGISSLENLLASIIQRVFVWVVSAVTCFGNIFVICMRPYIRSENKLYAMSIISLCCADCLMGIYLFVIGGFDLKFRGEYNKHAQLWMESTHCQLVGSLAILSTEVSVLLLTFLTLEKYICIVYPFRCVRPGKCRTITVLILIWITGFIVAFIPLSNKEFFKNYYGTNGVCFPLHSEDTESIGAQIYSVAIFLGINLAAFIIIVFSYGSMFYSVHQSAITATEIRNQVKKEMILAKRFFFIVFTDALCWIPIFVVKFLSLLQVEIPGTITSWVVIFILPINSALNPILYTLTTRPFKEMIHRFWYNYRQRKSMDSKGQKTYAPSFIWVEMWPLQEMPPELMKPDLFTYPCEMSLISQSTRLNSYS
Assay: cell-based or functional assay

cAMP response pEC50 (cAMP reporter gene assay, HEK293T cells overexpressing RXFP1): 10.2 pEC50 (negative decadic logarithm of the half-maximum concentration)
B1: -Asp-shRlx, single aa degradation product of synthetic human relaxin-2 (ligand)
chain 1: ELYSALANKCCHVGCTKRSLARFC
chain 2: SWMEEVIKLCGRELVRAQIAICGMSTWS
modifications: pGlu (pyroglutamate) at position 1
